The tissue uptake is the percentage of the injected dose found per gram of tissue.

This note sets out measurements from publication PMC13708078, “Development of a GRPR-Targeted ^99mTc/^188Re Theranostic Pair Based on NOTA-P2-RM26” (Pharmaceutics, 2026).

The data set can be described thus: in vivo. Particulars: female, Swiss Albino SCID, mouse, iv, total radioactivity. Also on record: species or system mice.

Procedure: PC-3 xenografts were established in female Swiss Albino SCID mice, aged 7–8 weeks. After acclimatization, animals were injected subcutaneously into the right shoulder/upper-flank region with freshly harvested PC-3 cells suspended in PBS. Each animal received 5 × 10^6 cells. Tumors were allowed to grow for approximately three weeks until palpable solid tumors were formed. At the time of the experiments, tumor volumes ranged from 200 to 400 mm^3. Animals were then randomly assigned to experimental groups.
Biodistribution studies were performed at 30 min and 1 h post injection (p.i.). […] The injected volume was 100 μL, and the injected activity was approximately 100 kBq per animal. Animals weighed 21 ± 2 g on the day of the experiment. For in vivo blocking studies, a separate group of animals received non-radioactive NOTA-P2-RM26 (50 μg) 5 min prior to the radiotracer injection. Blocking animals were euthanized at 1 h p.i. At the selected time points, animals were euthanized. Blood, tumors, organs, and tissues of interest were collected, weighed, and measured for radioactivity using the gamma counter. The stomach and intestines were measured without content. […] Data were decay-corrected and expressed as a percentage of injected activity per gram of tissue (%IA/g). Urine/bladder and gastrointestinal/fecal content were expressed as a percentage of injected activity (%IA).

With `CC(C)C[C@H](NC(=O)C[C@H](O)[C@H](CC(C)C)NC(=O)[C@H](Cc1c[nH]cn1)NC(=O)CNC(=O)[C@@H](NC(=O)[C@H](C)NC(=O)[C@H](Cc1c[nH]c2ccccc12)NC(=O)[C@H](CCC(N)=O)NC(=O)[C@@H](Cc1ccccc1)NC(=O)COCCOCCNC(=O)CN1CCN(CC(=O)O)CCN(CC(=O)O)CC1)C(C)C)C(N)=O` [^99mTc2, fac-[^99mTc][Tc(CO)3(NOTA-P2-RM26)], metal not drawn], the tissue uptake at 1 h is 0.18 ± 0.07 %ID/g (bone uptake) and 3 ± 0.35 %ID/g (pancreatic uptake).
